Data from publication PMC4605305, “TRAP150 interacts with the RNA-binding domain of PSF and antagonizes splicing of numerous PSF-target genes in T cells” (Nucleic Acids Research, 2015).

T1: HisFLAG-PSF exRRMs (266-484) (UniProt P23246 266-484)
T1 construct: also called HisFLAG-exRRMs; HFexRRM1+2; source: E. coli Rosetta(DE3)pLysS, purified (Ni-NTA, SEC); not shown: His6, N-terminal, kept; FLAG, N-terminal, kept
T1 sequence (looked up): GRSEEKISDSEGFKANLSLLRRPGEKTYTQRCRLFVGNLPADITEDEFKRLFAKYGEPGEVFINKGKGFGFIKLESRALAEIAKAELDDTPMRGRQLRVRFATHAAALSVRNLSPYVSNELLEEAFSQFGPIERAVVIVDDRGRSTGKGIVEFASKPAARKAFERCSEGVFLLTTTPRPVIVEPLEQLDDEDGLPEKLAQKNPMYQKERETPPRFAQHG

T2: GST-TRAPΔN (TRAP150 266-955) (UniProt Q9Y2W1 266-955)
T2 construct: pGEX-6-P1; also called GST-TRAP150ΔN; TRAP150-ΔN; source: E. coli Rosetta(DE3)pLysS, purified (glutathione sepharose, SEC); not shown: GST, N-terminal, kept
T2 sequence (looked up): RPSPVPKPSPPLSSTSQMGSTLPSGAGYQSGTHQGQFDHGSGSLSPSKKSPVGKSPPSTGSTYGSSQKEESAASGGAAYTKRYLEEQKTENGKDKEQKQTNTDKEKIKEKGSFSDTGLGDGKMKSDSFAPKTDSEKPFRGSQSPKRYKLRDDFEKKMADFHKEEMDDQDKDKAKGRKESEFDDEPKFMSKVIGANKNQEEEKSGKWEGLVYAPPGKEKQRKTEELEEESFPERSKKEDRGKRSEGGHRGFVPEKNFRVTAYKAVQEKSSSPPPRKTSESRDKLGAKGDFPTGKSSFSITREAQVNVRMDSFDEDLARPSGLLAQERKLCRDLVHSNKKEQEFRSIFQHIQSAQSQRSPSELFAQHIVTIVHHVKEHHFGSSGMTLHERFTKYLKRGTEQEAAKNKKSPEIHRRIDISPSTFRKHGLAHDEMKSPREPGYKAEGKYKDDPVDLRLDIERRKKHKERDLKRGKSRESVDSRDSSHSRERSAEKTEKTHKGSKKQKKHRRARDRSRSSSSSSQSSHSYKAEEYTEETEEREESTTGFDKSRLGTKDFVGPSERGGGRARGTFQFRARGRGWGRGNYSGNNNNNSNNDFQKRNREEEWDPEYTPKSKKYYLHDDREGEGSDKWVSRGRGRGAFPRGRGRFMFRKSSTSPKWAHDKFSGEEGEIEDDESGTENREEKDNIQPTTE


Tests used:
[1] = target: T1, HisFLAG-PSF exRRMs (266-484); assay: pull-down; 40 ug GST-tagged bait on glutathione sepharose 4B beads; prey incubated 1.5 h at 4°C in PBS; washes with PBS supplemented with 300 mM NaCl; western blot; settings: both partners purified
[2] = target: T2, GST-TRAPΔN (TRAP150 266-955); assay: as above; settings: both partners purified

Row | binding result [1] | binding result [2] | Binder
1 | binds | – | GST-TRAP150 580–755 (domain or fragment, UniProt Q9Y2W1 580-755, looked up, source: E. coli Rosetta(DE3)pLysS, purified (glutathione sepharose, SEC); not shown: GST, N-terminal, kept) LARPSGLLAQERKLCRDLVHSNKKEQEFRSIFQHIQSAQSQRSPSELFAQHIVTIVHHVKEHHFGSSGMTLHERFTKYLKRGTEQEAAKNKKSPEIHRRIDISPSTFRKHGLAHDEMKSPREPGYKAEGKYKDDPVDLRLDIERRKKHKERDLKRGKSRESVDSRDSSHSRERSAE
2 | – | binds | HisFLAG-PSF ΔRRM2 (natural protein, PSF (SFPQ) residues 1-370; linker joining the N- and C-terminal portions; PSF (SFPQ) residues 450-707; source: E. coli Rosetta(DE3)pLysS, purified (Ni-NTA, SEC); not shown: His6, N-terminal, kept; FLAG, N-terminal, kept) MSRDRFRSRGGGGGGFHRRGGGGGRGGLHDFRSPPPGMGLNQNRGPMGPGPGQSGPKPPIPPPPPHQQQQQPPPQQPPPQQPPPHQPPPHPQPHQQQQPPPPPQDSSKPVVAQGPGPAPGVGSAPPASSSAPPATPPTSGAPPGSGPGPTPTPPPAVTSAPPGAPPPTPPSSGVPTTPPQAGGPPPPPAAVPGPGPGPKQGPGPGGPKGGKMPGGPKPGGGPGLSTPGGHPKPPHRGGGEPRGGRQHHPPYHQQHHQGPPPGGPGGRSEEKISDSEGFKANLSLLRRPGEKTYTQRCRLFVGNLPADITEDEFKRLFAKYGEPGEVFINKGKGFGFIKLESRALAEIAKAELDDTPMRGRQLRVRFATHAGGSGHMLEQLDDEDGLPEKLAQKNPMYQKERETPPRFAQHGTFEYEYSQRWKSLDEMEKQQREQVEKNMKDAKDKLESEMEDAYHEHQANLLRQDLMRRQEELRRMEELHNQEMQKRKEMQLRQEEERRRREEEMMIRQREMEEQMRRQREESYSRMGYMDPRERDMRMGGGGAMNMGDPYGSGGQKFPPLGGGGGIGYEANPGVPPATMSGSMMGSDMRTERFGQGGAGPVGGQGPRGMGPGTPAGYGRGREEYEGPNKKPRF
3 | binds | – | GST-TRAP150 686–755 (PSF-interacting domain, PID) (domain or fragment, UniProt Q9Y2W1 686-755, looked up, also called GST-TRAP(PID); TRAP150 PID; source: E. coli Rosetta(DE3)pLysS, purified (glutathione sepharose, SEC); not shown: GST, N-terminal, kept) FRKHGLAHDEMKSPREPGYKAEGKYKDDPVDLRLDIERRKKHKERDLKRGKSRESVDSRDSSHSRERSAE
4 | – | binds | HisFLAG-PSF ΔRRM1 (natural protein, PSF (SFPQ) residues 1-298; linker joining the N- and C-terminal portions; PSF (SFPQ) residues 367-707; source: E. coli Rosetta(DE3)pLysS, purified (Ni-NTA, SEC); not shown: His6, N-terminal, kept; FLAG, N-terminal, kept) MSRDRFRSRGGGGGGFHRRGGGGGRGGLHDFRSPPPGMGLNQNRGPMGPGPGQSGPKPPIPPPPPHQQQQQPPPQQPPPQQPPPHQPPPHPQPHQQQQPPPPPQDSSKPVVAQGPGPAPGVGSAPPASSSAPPATPPTSGAPPGSGPGPTPTPPPAVTSAPPGAPPPTPPSSGVPTTPPQAGGPPPPPAAVPGPGPGPKQGPGPGGPKGGKMPGGPKPGGGPGLSTPGGHPKPPHRGGGEPRGGRQHHPPYHQQHHQGPPPGGPGGRSEEKISDSEGFKANLSLLRRPGEKTYTQRCRGGSGHMATHAAALSVRNLSPYVSNELLEEAFSQFGPIERAVVIVDDRGRSTGKGIVEFASKPAARKAFERCSEGVFLLTTTPRPVIVEPLEQLDDEDGLPEKLAQKNPMYQKERETPPRFAQHGTFEYEYSQRWKSLDEMEKQQREQVEKNMKDAKDKLESEMEDAYHEHQANLLRQDLMRRQEELRRMEELHNQEMQKRKEMQLRQEEERRRREEEMMIRQREMEEQMRRQREESYSRMGYMDPRERDMRMGGGGAMNMGDPYGSGGQKFPPLGGGGGIGYEANPGVPPATMSGSMMGSDMRTERFGQGGAGPVGGQGPRGMGPGTPAGYGRGREEYEGPNKKPRF
